Experimental findings from paper PMC9907115 are described below.

Holding throughout (test): cross-linking
Test [1] deals with OrgB^R21^p^Bpa (OrgB^M45 variant) (S. Typhimurium).
Test [2] concerns the target ^3FLAGPrgH (S. Typhimurium) (UniProt P41783).
Test [3] has as its target ^3FLAGSpaO (S. Typhimurium) (UniProt P40699).

By stoichiometry N is commonly meant a count of units in the complex or per binding partner.

Chain of UniProt P40699 (P40699 whole entry): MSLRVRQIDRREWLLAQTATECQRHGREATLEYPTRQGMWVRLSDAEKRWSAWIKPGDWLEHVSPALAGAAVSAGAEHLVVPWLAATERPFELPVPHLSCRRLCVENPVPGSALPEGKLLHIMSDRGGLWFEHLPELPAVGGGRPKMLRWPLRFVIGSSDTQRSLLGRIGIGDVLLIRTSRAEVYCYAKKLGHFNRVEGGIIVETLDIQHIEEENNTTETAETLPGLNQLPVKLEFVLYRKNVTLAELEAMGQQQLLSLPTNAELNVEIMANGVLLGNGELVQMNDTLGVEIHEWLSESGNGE
Chain of UniProt P41783 (P41783 whole entry): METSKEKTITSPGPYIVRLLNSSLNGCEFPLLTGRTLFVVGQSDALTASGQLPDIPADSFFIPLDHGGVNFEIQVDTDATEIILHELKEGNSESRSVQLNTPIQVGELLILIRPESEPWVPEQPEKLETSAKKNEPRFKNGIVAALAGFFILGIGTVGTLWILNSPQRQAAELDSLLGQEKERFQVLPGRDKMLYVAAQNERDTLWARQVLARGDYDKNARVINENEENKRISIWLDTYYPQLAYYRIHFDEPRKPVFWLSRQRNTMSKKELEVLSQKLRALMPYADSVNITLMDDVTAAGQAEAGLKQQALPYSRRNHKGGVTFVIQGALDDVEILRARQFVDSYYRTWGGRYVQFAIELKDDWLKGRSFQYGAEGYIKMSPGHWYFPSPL

As for “OrgB^R21^p^Bpa (OrgB^M45 variant) (natural protein)”, the stoichiometry N in test [1] was found to be 2.

For “OrgA^S70^p^Bpa/L104^p^Bpa (natural protein)”, the stoichiometry N (PrgH per OrgA) in test [2] was found to be 2.

Turning to “OrgB^K20^p^Bpa (OrgB^M45 variant) (natural protein)”, in test [3], the stoichiometry N (OrgB per SpaO) amounted to 2.
